{
  "source": "the nanobody polyreactivity screen of Harvey et al. (2022)",
  "data": [
    {"experiment": "yeast display, Sf9 membrane polyspecificity reagent, FACS + sequencing; frameworks hold sequencing errors", "summary_of_the_method": "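Sorting gates, low and high (top ~1%), were placed on anti-HA fluorescence to track expression and on streptavidin fluorescence to track reagent binding. A clone's polyreactivity label is taken from the gate it came out of. The reagent was 10% biotinylated, detergent-solubilized Sf9 membrane, applied for 1 hour at 4 °C to galactose-induced yeast display cells.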", "values": [
      {"sequence": "QVQLVESGGGLVQAGGSLRLSCAASGFTFRHYTMGWYRQAPGKERELVAAISSSGVTTYYADSVKGRFTISRDNAKNTVYLQMISLKPEDTAVYYCADRPYYYYVDYDYWGLGTQVTVSS", "polyreactivity (PSR sort gate)": "high polyreactivity"},
      {"sequence": "QVQLVESGGGLVQAGGSLRLSCAASGFTFRIYAMGWYRQAPGKERELVATISWSGTSTYYADSVKGRFTISRDNAKNTVYLQMNSLKPEDTAVYYCAKDGVSFYWLNKYYYWGQGTQVTVSS", "polyreactivity (PSR sort gate)": "low polyreactivity"},
      {"sequence": "QVQLVESGGGLVQAGGSLRLSCAASGFTFRKNAMGWYRQAPGKERELVAAIRGSAGSTYYADSVKGRFTISRDNAKNTVYLQMNSLKPEDTAVSYCATGGYPSLWDGYGYWGQGTQVTVSS", "polyreactivity (PSR sort gate)": "low polyreactivity"},
      {"sequence": "QVQLVESGGGLVQAGGSLRLSCAASGFTFRKNAMGWYRQAPGKERELVAAISSGGGRTYYADSVKGRFTISRDNAKNTVYLQMNSLKPEDTAVYYCNAVRVVRLTFQDWISMDYWGQGTQVTVSS", "polyreactivity (PSR sort gate)": "high polyreactivity"},
      {"sequence": "QVQLVESGGGLVQAGGSLRLSCAASGFTFRLYAMGWYRPAPGKERELVARISSGGSTHYADSVKGRFTISRDNAKNTVSLQMNSLKPEDTAVYYCAAGWGYWRSYGSWGQGTQVTVSS", "polyreactivity (PSR sort gate)": "high polyreactivity"},
      {"sequence": "QVQLVESGGGLVQAGGSLRLSCAASGFTFRLYVMGWYRQAPGKERELVAAISSRGGSTYYADSVKGRFTISRDNAKNTVYLQMNSLKPEDTAVYYCAADRPRGRETVDYWGQGTQVTVSS", "polyreactivity (PSR sort gate)": "high polyreactivity"},
      {"sequence": "QVQLVESGGGLVQAGGSLRLSCAASGFTFRNYAMGWYIQAPGKERELVATISWSGGSTYYADSVKGRFTISRDNAKNTVYLQMNSLKPEDTAVYYCAAKTILWKYYPYYYVTYDYWGQGTQVTVSS", "polyreactivity (PSR sort gate)": "high polyreactivity"},
      {"sequence": "QVQLVESGGGLVQAGGSLRLSCAASGFTFRQNAMGWYRQAPGNERELVAVITKSAGSTYYADSVKGRFTISRDNAKNTVYLQMNSLKPEATAVYYCNKRQRFVSSCRRSQGIGWEDDYWGQGTQVTVSS", "polyreactivity (PSR sort gate)": "low polyreactivity"},
      {"sequence": "QVQLVESGGGLVQAGGSLRLSCAASGFTFRRNAMGWYRQAPGKERELVAAINVRDGSTYYADSVKGRFTISRDNAKNTVYLQMNSLKPEDTAVYYCAAEFFQGYYWYYYWGQGTQVTVSS", "polyreactivity (PSR sort gate)": "high polyreactivity"},
      {"sequence": "QVQLVESGGGLVQAGGSLRLSCAASGFTFRRNAMGWYRQAPGKERELVAAISSSGGSTSYADSVKGRFTISRDNAKNTVYLQMNSLKPEDTAVYYCAVEVASYDRRPSEYYWGQGTQVTVSS", "polyreactivity (PSR sort gate)": "high polyreactivity"},
      {"sequence": "QVQLVESGGGLVQAGGSLRLSCAASGFTFRRNAMGWYRQAPGKERELVASITINGGSTTYADSVKGRFTISRDNAKNTVYLQMNSLKPEDTAVYYCNKRYRTYRSVPQYEYWGQGTQVTVSS", "polyreactivity (PSR sort gate)": "high polyreactivity"},
      {"sequence": "QVQLVESGGGLVQAGGSLRLSCAASGFTFRRYAMGWYRPARGKERELVAAIRQSGGSTYADSVKGRFTISRDNAKNTVYLQMNSLKPEDTAVYYCNAGVRAVNRKYDYWGQGTQVTVSS", "polyreactivity (PSR sort gate)": "high polyreactivity"},
      {"sequence": "QVQLVESGGGLVQAGGSLRLSCAASGFTFRRYAMGWYRQAPGKERELVAAISASGGNTYYADSVKGRFTISRDNAKNTVYLQMNSLKPEDTAVYYCATDWTVRYDYWGQGTQVTVSS", "polyreactivity (PSR sort gate)": "high polyreactivity"},
      {"sequence": "QVQLVESGGGLVQAGGSLRLSCAASGFTFRSYAMGWYRQAPGKEREFVAAINGRSGSTYADSVKGRFTISRDNAKNTVYLQMNSLNPEDTAVYYCAAGQRHKNSNRPDNYWGQGSQVTVSS", "polyreactivity (PSR sort gate)": "high polyreactivity"},
      {"sequence": "QVQLVESGGGLVQAGGSLRLSCAASGFTFRVNAMGWYRQAPGKERELVAASSSGGRTYYADSVKGRFTISRDNAKNTVYLQMNSLKPEDTAVYYCNAGRVRHGNDYWGQGTQVTVSS", "polyreactivity (PSR sort gate)": "high polyreactivity"},
      {"sequence": "QVQLVESGGGLVQAGGSLRLSCAASGFTFRVYAMGGYRPAPGKERELVAAITSGSSTTYADSVKGRFTISRDNAKNTVYLQMNSLKPEDTAVYYCNARRRGRVTGSYGYWGQGTQVTVSS", "polyreactivity (PSR sort gate)": "high polyreactivity"},
      {"sequence": "QVQLVESGGGLVQAGGSLRLSCAASGFTFRVYAMGRYRQAPGKERELVAVISGTGGRTYYADSVKGRFTISRDNAKNTVYLQMNSLKPEDTAVYYCARRGRPPAIYDYWGQGTQVTVSS", "polyreactivity (PSR sort gate)": "high polyreactivity"},
      {"sequence": "QVQLVESGGGLVQAGGSLRLSCAASGFTFRVYAMGWYRQAPGKERELVAAITQRGGSTYYADSVKGRFTISRDNSKNTVYLQMNRLNTEDTAVYYCNKFAGQPTYDYWGQGTQVTVSS", "polyreactivity (PSR sort gate)": "high polyreactivity"},
      {"sequence": "QVQLVESGGGLVQAGGSLRLSCAASGFTFRVYAMGWYRQAPGKERELVAVISGTGGRTYYADSVKGRFTISRDNAKNTVYLQMNSLKPEDTAVYYCARRGRPPAIYDYWGQGTQVTVSS", "polyreactivity (PSR sort gate)": "high polyreactivity"},
      {"sequence": "QVQLVESGGGLVQAGGSLRLSCAASGFTFRWNAMGWYRQAPGKERELVAAITSRGGSTYYADSVKGRFTISRDNAKNTVYLQINSLKPEDTAVYYCARLAGIGFSYRYDYWGQGTQVTVSS", "polyreactivity (PSR sort gate)": "high polyreactivity"},
      {"sequence": "QVQLVESGGGLVQAGGSLRLSCAASGFTFRWYAMGSYRQAPGKERELVAAISSSGGSTYYADSVKGRFTISRDNAKNTVYLQMNSLKPEDTAVYYCAAASLRPYQRAYGYEYWGQGTQVTVSS", "polyreactivity (PSR sort gate)": "high polyreactivity"},
      {"sequence": "QVQLVESGGGLVQAGGSLRLSCAASGFTFRWYAMGWYRQAPGKERELVAAISVSGGSTSYADSVKGRFTISRDNAKNTVYLQMNSLKPEDTAVYYCAAVRWAGYVSDYGYWGQGTQVTVSS", "polyreactivity (PSR sort gate)": "high polyreactivity"},
      {"sequence": "QVQLVESGGGLVQAGGSLRLSCAASGFTFRYNAMGWYRQAPGKEREFVAAITVTGGSTYYADSVKGRFTISRDNAKNTVYLQMNCLKPEDTAVYYCNAYRYTSSKFGYWGQGTQVTVSS", "polyreactivity (PSR sort gate)": "low polyreactivity"},
      {"sequence": "QVQLVESGGGLVQAGGSLRLSCAASGFTFRYNAMGWYRQAPGKERELVAAISWSGGSTYYADSVKGRFTISRDNAKNTVYLQMNSLKPEDTAVYYCNRAYGYSFSLNRYDYWGQGTQVTVSS", "polyreactivity (PSR sort gate)": "low polyreactivity"},
      {"sequence": "QVQLVESGGGLVQAGGSLRLSCAASGFTFRYNTMGWYRQAPGKERELVAAISSSGGRTYYADSVKGRFTISRDNAKNTVYLQMNSLKPEDTAVYYCNAVTRESGGFDYWGQGTQVTVSS", "polyreactivity (PSR sort gate)": "high polyreactivity"},
      {"sequence": "QVQLVESGGGLVQAGGSLRLSCAASGFTFRYYAMGGYRQAPGKERELVAAITASGGSTNYADSVKGRFTISRDNAKNTVYLQMNSLKPEDTAVYYCAADVRFSYYNRYRGYSAYDNWGQGTQVTVSS", "polyreactivity (PSR sort gate)": "high polyreactivity"},
      {"sequence": "QVQLVESGGGLVQAGGSLRLSCAASGFTFRYYAMGWYRQAPGKERELVAAISWSGASTYYADSVKGRFTISRDNAKNTVYLQMNSLKPEDTAVYYCAADIPGTYYYWGQGTQVTVSS", "polyreactivity (PSR sort gate)": "high polyreactivity"},
      {"sequence": "QVQLVESGGGLVQAGGSLRLSCAASGFTFRYYAMGWYRQAPGKERELVAAISWSGGRTYYADSVKGRFTISRDNAKNTVYLQMNSLKPEDTAVYYCAADGYPYFYGDFDYWGQGTQVTVSS", "polyreactivity (PSR sort gate)": "high polyreactivity"},
      {"sequence": "QVQLVESGGGLVQAGGSLRLSCAASGFTFRYYAMGWYRQAPGKERELVASISARGGITNYADSVKGRFTISRDNAKISVYLQMNSLKPEDTAVYYCAADVFSWYGEYDYWGQGTQVTVSS", "polyreactivity (PSR sort gate)": "high polyreactivity"},
      {"sequence": "QVQLVESGGGLVQAGGSLRLSCAASGFTFRYYAMGWYRQAPGKERELVASISWSSGSTHYADSVKGRFTISRDNAKNTVYLQMNSLKPEDTAVYYCNARHRTSSMHYWGQGTQVTVSS", "polyreactivity (PSR sort gate)": "high polyreactivity"},
      {"sequence": "QVQLVESGGGLVQAGGSLRLSCAASGFTFRYYAMGWYRQAPGKEREWVAGISSRGGSTYYADSVKGRFTISRDNAKNTVYLQMNSLKPEDSAVYYCATERFLLGLGYDYWGQGTQVTVSS", "polyreactivity (PSR sort gate)": "high polyreactivity"},
      {"sequence": "QVQLVESGGGLVQAGGSLRLSCAASGFTFRYYTMGWYRQAPGKERELVAAITWSGGSTYYADSVKGRFTISRDNAKNTVYLQMNSLKPEDTAVYYCNAYPSYVSFDYWGQGTQVTVSS", "polyreactivity (PSR sort gate)": "high polyreactivity"},
      {"sequence": "QVQLVESGGGLVQAGGSLRLSCAASGFTFRYYVMGWYRQAPGKERELVAAISQSGGSTYYADSVKGRFTISRDNAKNTVYLQMNSLKPEDTAVYYCAARLVKYFRPYDYWGQGTQVTVSS", "polyreactivity (PSR sort gate)": "high polyreactivity"},
      {"sequence": "QVQLVESGGGLVQAGGSLRLSCAASGFTFSAYDMGWYRQAPGKERELVAAISYSGGSTYYADSVKGRFTISRDTAKNTVYLQMNSLKPEDTAVYYCAADGYYTDYWGQGTQVTVSS", "polyreactivity (PSR sort gate)": "high polyreactivity"},
      {"sequence": "QVQLVESGGGLVQAGGSLRLSCAASGFTFSFYTMGWYRQAPGKERELVAAISRRGGSTYYADSVKGRFTISRDNAKNTVYLQMNSLKPEDTAVYYCATDHIPSVGVDYWGQGTQVTVSS", "polyreactivity (PSR sort gate)": "high polyreactivity"},
      {"sequence": "QVQLVESGGGLVQAGGSLRLSCAASGFTFSHNPMGWYRQAPGKERELVATITRGGGNTYYADSVKGRCTISRDNAKNTVYLQMNSLKPEDTAVYYCSAERYKRMDYWGQGTQVTVSS", "polyreactivity (PSR sort gate)": "low polyreactivity"},
      {"sequence": "QVQLVESGGGLVQAGGSLRLSCAASGFTFSHYAMGWYRQAPGKERELVAAITASGGNTYYADSVKGRFTISRDNAKNTVYLQMNSLKPEDTAVYYCNAVSLKFTRKYDYWGQGTQVTVSS", "polyreactivity (PSR sort gate)": "high polyreactivity"},
      {"sequence": "QVQLVESGGGLVQAGGSLRLSCAASGFTFSKYAMLWYRQAPGKEREFVAAISSRGGRTYYADSVKGRFTISRDNAKNTVYLQMNSLKPEDTAVYYCAVDVHLVTEYDYWGQGTQVTVSS", "polyreactivity (PSR sort gate)": "high polyreactivity"},
      {"sequence": "QVQLVESGGGLVQAGGSLRLSCAASGFTFSKYVMGWYRQAPGKERELVAAISKRGGSTYYADSVKGRFTISRDNAKNTVYLQMNSLKPEDTAVYYCAARYYLEPILEMDYWGQGTQVTVSS", "polyreactivity (PSR sort gate)": "high polyreactivity"},
      {"sequence": "QVQLVESGGGLVQAGGSLRLSCAASGFTFSNYAMGWYRQAPGKERELVAAISFRTGRTYYADSVKWRFTISRDNAKNTVFLQMNILKPEDTAVYYCAVQPYHSYLHNYWGQGTQVTVSS", "polyreactivity (PSR sort gate)": "high polyreactivity"},
      {"sequence": "QVQLVESGGGLVQAGGSLRLSCAASGFTFSNYTMGWYRQAPVKERELVARITTRGTSTYYADSVKGRFTISRDNAKNTVYLQMNSLKPEDTAVYYCNARARYPRGYEYDYWGQGTQVTVSS", "polyreactivity (PSR sort gate)": "high polyreactivity"},
      {"sequence": "QVQLVESGGGLVQAGGSLRLSCAASGFTFSRNAMGWYRQAPGKERELVAAIDSGGSTDYADSVKGRFTISRDNAKNTVYLQMNSLKPEDSAVYYCAKASSATRYVQLRQDYDYWGQGTQVTVSS", "polyreactivity (PSR sort gate)": "low polyreactivity"},
      {"sequence": "QVQLVESGGGLVQAGGSLRLSCAASGFTFSRNAMGWYRQAPGKERELVAAISSSGGSTYYADSVKGRFTISRDNAKNTVYLQMNSLKPEDTAVYYCNVDHWRRGRSDNYWGQGTQVTVSS", "polyreactivity (PSR sort gate)": "high polyreactivity"}
    ]}
  ]
}
